Laboratory results: patent publication WO2020219978A1 (dated 2020)

Key:
[1] = target: T1, human BCMA (hu-BCMA), as used in SPR (human, UniProt Q02223 1-54); assay: SPR, mean (n = 3 by paragraph 97)
T1 construct: The construct used in SPR is not described; also called B cell maturation antigen; TNFRSF17
T1 sequence: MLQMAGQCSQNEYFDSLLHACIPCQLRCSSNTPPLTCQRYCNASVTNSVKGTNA

[2] = target: T1, human BCMA (hu-BCMA), as used in SPR; assay: SPR
[3] = target: T2, mouse BCMA (mouse, UniProt O88472 1-49, limits assumed); assay: SPR
T2 construct: also called rodent BCMA
T2 chain (looked up): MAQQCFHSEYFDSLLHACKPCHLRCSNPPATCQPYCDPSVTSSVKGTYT

[4] = target: T3, BCMA/Fc (human, UniProt Q02223 1-54); assay: flow cytometry blocking experiment on U266 cells; soluble BCMA/Fc against BCMA on the cells
T3 construct: not shown: Fc part not described
T3 sequence: T1 sequence

[5] = target: T4, human BCMA on cells (NCI-H929, L363, JJN-3, RPMI-8226, U266 myeloma cell lines; HEK293T-huBCMA) (human, UniProt Q02223 1-184); assay: flow cytometry on NCI-H929 MM cells, 3 lots
T4 construct: also called BCMA on myeloma cell lines
T4 sequence: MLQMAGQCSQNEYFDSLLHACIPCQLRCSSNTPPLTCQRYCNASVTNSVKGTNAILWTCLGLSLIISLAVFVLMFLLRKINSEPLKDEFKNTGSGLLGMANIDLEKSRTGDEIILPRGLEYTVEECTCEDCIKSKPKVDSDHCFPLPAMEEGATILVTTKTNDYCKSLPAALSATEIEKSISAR

[6] = target: human CD3 epsilon (CD3ɛ), form of the assay not stated (human, UniProt P07766 23-126, limits assumed); assay: not stated (description)
[7] = target: T1, human BCMA (hu-BCMA), as used in SPR; assay: not stated (description)
[8] = target: T5, human cluster of differentiation 3 epsilon/delta heterodimer (CD3ed) (human, UniProt P04234 22-105); assay: SPR (n = 3 by paragraph 97)
T5 construct: also called human CD3ed heterodimer

[9] = target: T6, CD3 on Jurkat cells (human, UniProt P07766 23-207); assay: flow cytometry on Jurkat cells, second study
T6 construct: also called CD3 on T cell lines

[10] = target: T6, CD3 on Jurkat cells; assay: flow cytometry on Jurkat cells

T6 sequence (P07766 23-207 limits assumed): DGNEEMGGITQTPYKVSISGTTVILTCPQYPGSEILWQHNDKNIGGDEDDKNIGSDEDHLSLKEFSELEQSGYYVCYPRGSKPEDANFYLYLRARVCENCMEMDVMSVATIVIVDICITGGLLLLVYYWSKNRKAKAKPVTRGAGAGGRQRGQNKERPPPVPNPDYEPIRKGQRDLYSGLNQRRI
T5 sequence (chain, as listed by the source mutant, chain 1 of 2): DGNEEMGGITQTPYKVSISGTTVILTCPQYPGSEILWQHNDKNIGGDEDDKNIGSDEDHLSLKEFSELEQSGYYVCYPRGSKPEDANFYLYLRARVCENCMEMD
T5 sequence (P04234 22-105, stated change not applied, chain 2 of 2): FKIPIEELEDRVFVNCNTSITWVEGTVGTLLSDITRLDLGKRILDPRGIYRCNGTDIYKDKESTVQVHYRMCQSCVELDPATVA
Sequence of human CD3 epsilon (CD3ɛ), form of the assay not stated (P07766 23-126 limits assumed): as the sequence (chain, as listed by the source mutant, chain 1 of 2) above

B1: BCMA binder of CC-93269 (anti-BCMA IgG and Fab fragment of clone 83A10-42) (antibody, V domains shown)
VH: EVQLLESGGGLVQPGGSLRLSCAASGFTFSDNAMGWVRQAPGKGLEWVSAISGPGSSTYYADSVKGRFTISRDNSKNTLYLQMNSLRAEDTAVYYCAKVLGWFDYWGQGTLVTVSS
VL: EIVLTQSPGTLSLSPGERATLSCRASQSVSDEYLSWYQQKPGQAPRLLIHSASTRATGIPDRFSGSGSGTDFTLAISRLEPEDFAVYYCQQYGYPPDFTFGQGTKVEIK
In the case of B1, the Kd [1] is reported as 0.431 nM, the Kd [2] is reported as 0.203 to 0.45 nM and the binding result [3] is reported as “binds”.

B2: phycoerythrin (PE)-conjugated BCMA binder (Clone 83A10-42) of CC-93269 (antibody, V domains shown)
VH: B1 VH
VL: B1 VL
modifications: phycoerythrin (PE)-conjugated; site not stated
notes: also called PE-conjugated 83A10-42
B2: binds [4].

B3: CC-93269, bispecific trivalent anti-BCMA/anti-CD3 T cell engaging antibody (TCE) (bispecific antibody, human IgG1, kappa, L234A L235A)
heavy 1: not shown
heavy 2: EVQLLESGGGLVQPGGSLRLSCAASGFTFSDNAMGWVRQAPGKGLEWVSAISGPGSSTYYADSVKGRFTISRDNSKNTLYLQMNSLRAEDTAVYYCAKVLGWFDYWGQGTLVTVSSASTKGPSVFPLAPSSKSTSGGTAALGCLVEDYFPEPVTVSWNSGALTSGVHTFPAVLQSSGLYSLSSVVTVPSSSLGTQTYICNVNHKPSNTKVDEKVEPKSCDKTHTCPPCPAPEAAGGPSVFLFPPKPKDTLMISRTPEVTCVVVDVSHEDPEVKFNWYVDGVEVHNAKTKPREEQYNSTYRVVSVLTVLHQDWLNGKEYKCKVSNKALGAPIEKTISKAKGQPREPQVCTLPPSRDELTKNQVSLSCAVKGFYPSDIAVEWESNGQPENNYKTTPPVLDSDGSFFLVSKLTVDKSRWQQGNVFSCSVMHEALHNHYTQKSLSLSPGK
light 1: EVQLLESGGGLVQPGGSLRLSCAASGFTFSTYAMNWVRQAPGKGLEWVSRIRSKYNNYATYYADSVKGRFTISRDDSKNTLYLQMNSLRAEDTAVYYCVRHGNFGNSYVSWFAYWGQGTLVTVSSASVAAPSVFIFPPSDEQLKSGTASVVCLLNNFYPREAKVQWKVDNALQSGNSQESVTEQDSKDSTYSLSSTLTLSKADYEKHKVYACEVTHQGLSSPVTKSFNRGEC
light 2: EIVLTQSPGTLSLSPGERATLSCRASQSVSDEYLSWYQQKPGQAPRLLIHSASTRATGIPDRFSGSGSGTDFTLAISRLEPEDFAVYYCQQYGYPPDFTFGQGTKVEIKRTVAAPSVFIFPPSDRKLKSGTASVVCLLNNFYPREAKVQWKVDNALQSGNSQESVTEQDSKDSTYSLSSTLTLSKADYEKHKVYACEVTHQGLSSPVTKSFNRGEC
In the case of B3, the EC50 [5] is reported as 1.7 to 2.8 nM, the Kd [6] is reported as 24 to 28 nM and the Kd [7] is reported as roughly 0.3 nM. The “fold higher affinity than to rodent BCMA” value [2] was roughly 10 fold, the Kd [8] was 25 nM and the EC50 [9] was 121 nM. For the same binder, the EC50 [10] was 16.8 to 37.4 nM.
